± gives the half width of the 95% confidence interval.
experiment: folding stability dG unfold from chymotrypsin proteolysis; higher = more stable
Outline: (§1)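 Digests were run with trypsin and chymotrypsin at 11 concentrations in threefold dilutions, plus a no-protease condition, on designed mini-proteins in a PA-tagged cDNA display construct. The mini-proteins were under 80 residues, had no cysteine, and were kept only when AlphaFold2 dimer inter-PAE was above 15. After sequencing, Bayesian fitting of the counts gave K50, from which unfolding free energy was derived against a sequence-predicted unfolded-state K50 and a shared folded-state K50, per protease or combined.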

Sequence | folding stability dG unfold [kcal/mol]
SAGGSAGGSAGGSTLQSNASGIFTLYLAGSNLTVTLSKAELPKIPADFPIPSSATFTAGSAGGSAGGSAGGS [r4_91_JUSTAS] | -0.41 ± 0.51
SAGGSAGGSAGGSMVSVEEFEVELPGGSKVKATVLIDPEGPLTVLLGDETFILPKEELGSAGGSAGGSAGGS [r10_649_JUSTAS] | -0.229 ± 0.19
SAGGSAGGSAGGWRTVWIRMPPGQSPEQAVDEIKDHFPPGEPIEVEYHPNDGFFRVKIPSAGGSAGGSAGGS [r10_163_TrROS] | 0.546 ± 0.22
SAGGSAGGSAGGSSLYVPGKGYIVERDEAKGYLVIKPIEPDGIVPDAEVFYKPPSVPLISAGGSAGGSAGGS [r4_409_JUSTAS] | -0.102 ± 0.43
SASMIQKYFKSQGYKIEKIEEKTLPNGERVVSYKITSTVNVPPNEKGVSKPVKKTTELTLSTEEAIKLGSAG [r14_16_JUSTAS] | 1.32 ± 0.21
SAGGFKLKIDDIEFHDDYLVIRLKIEVPVNDQTMKFELTLIIPVPPPPPPKPPVDPEEYRDPDGKWHSAGGS [r8_234_TrROS] | 2.9 ± 0.062
SAGGMTLRITTADGRVIEIEADSLEDALAALRTLLGLKPGDVLTVEVVVEVDGEKKTFTLTIVLPPEPSAGG [r13_145_TrROS_Hall] | 6.08 ± 0.089
SAGGMLVRVRFRIVEPGTGEPFEFEALLFFGEDGSFELVFPDGTRLLFPPEARIEVLDAELLDPDEASAGGS [r16_223_TrMRF] | 4.9 ± 0.11
KKKKPPKVVKVEIKFDKKTKKITVKVDGKTFTITLPDGKKIEITVPAGMSEEEIKALAKKLAKELEEKLKKS [r1_25_TrROS_Hall] | 1.97 ± 0.2
SAGMPPVKVEIEVYPVRVEGELLYIAKIVRPDGSVLVIAFKPEELIEAIKKEFPDIEEIKFSPFETPPESAG [r5_25_TrMRF] | 3.579 ± 0.022
SAGGSAGGGMPMNIKVEEITSETIPPDVTVSETKVIDPSGKELKYLTVTTVRTDGKTSVLTVEGSAGGSAGG [r6_830_JUSTAS] | -0.58 ± 0.56
SAGGGAIVRARFPRDIPELVRAYKILEAAAPDEEVTLLLPEKPVVVVRREKVGDYFLLEVRLPEDLLSAGGS [r16_404_TrMRF] | 0.546 ± 0.15
SAGGSAFKIKIPEDLRGAPPGGKIEIEFPNGVRAEIEYKDGEWVIEVKHYGPNGKPVEEHEFRIKVSAGGSA [r15_558_TrROS] | 0.94 ± 0.18
SAGGSAGGSAVVTLSPDGRRITITSRTVTYFKVTNTDDIAIETSVETVVTPLPSLGSPEVLASAGGSAGGSA [r18_6_JUSTAS] | 2.1 ± 0.098
SAGGKEVKITIEYDEETKEVRVTIEKDGKEITVTMTAEELKKLLEELEKLPPVVVKDKDGKEKVVLLSAGGS [r8_332_TrROS_Hall] | -0.472 ± 0.26
SAGGKKIEIYKLKDALIIKIPEKGLLILLGNDTAIIFKVKSIKNNGKPKIISSKIISLEEILDLIKSSAGGS [r8_174_TrMRF] | 3.75 ± 0.047
SAGGSAGGSSMYTYPELGVKVTTTPLPTDSTLVTATFPDGSVYKFTVDPSGNLVTSTPIVVNSSAGGSAGGS [r12_56_JUSTAS] | 1.01 ± 0.064
SAGGSAGGSAGGETVTIVDKKTNKTITYNKETNEFTITTKNGKKKTIKVDSPEEALKALSAGGSAGGSAGGS [r10_849_TrROS_Hall] | 0.731 ± 0.1
SAGGWTIEEIIDAIREAKENGPGQKVEIEIPFGGGPVRVSIEVPPDGRVKIEIQYDNKPIWEIEIPVSAGGS [r16_611_TrROS] | 2.12 ± 0.081
SARIAEILRELGMEVSVENHPDGMNEITFKFPNGYKIQVHMSPNGIDVQIQPPEGERRTFSIDEIKDLLSAG [r14_578_TrROS] | 3.14 ± 0.046
SAGGSAGGSAGGKVIVKEITINEDGTVTIKGEIFDENGELIAEAEFKFRLGDGGPIEFESAGGSAGGSAGGS [r10_484_TrMRF] | 2.462 ± 0.021

experiment: folding stability dG unfold (combined trypsin and chymotrypsin); higher = more stable
Outline: as §1

Sequence | folding stability dG unfold [kcal/mol]
MVVTVETTMIDPEGNPLTKTFTVPSSVVEALKEAGKPLTKEELEKLVKEKVEAEAKKYNVSVEVTLVSFERS [r1_174_JUSTAS] | 2.6 ± 0.27
SSITVVETREERVTLPDGREVTRRETRVVELSEEELRRLLRERLREALREAGIEEVTEEDLDSPEVLAALSA [r9_263_TrROS_Hall] | 1.86 ± 0.12
SAGGVEELAKELAERLREELERRLGVEKVEVVDVEVVEVDEETGTVTVRITVRLPDGELLELELELHLDSAG [r5_20_TrROS_Hall] | 3.39 ± 0.15
SAGGSAGGSAGSMTITRTLPGLTVTFTRLPDPNKETITFKLGDKWTTVPASTLSSSVISLSAGGSAGGSAGG [r11_152_JUSTAS] | -0.14 ± 0.21
SMPLSEEEARALAEALAAEVAAAAAAAGVAGVEVPVEISRTEEGGWTITLTVTLHAGAAPVGVRPVVVEVAS [r1_364_JUSTAS] | 1.59 ± 0.081
SKEEKPPEVKTFKVKKIEFDPETKKITVEVDGKKLTLELKPGQEVEIFKDGKEIRVVRLAPPPPEKKEKKSA [r9_551_TrROS_Hall] | > 6
SAGGEVEVKEITMTAEELRELIEELKKEGYLVVIENKTGEKKVIPVKEDDLKPGDEVKIRVFKLKKPSAGGS [r16_31_TrROS_Hall] | 0.733 ± 0.31
SAGKIIKFKTKANENASITVPEENKILKIKVYKPNGTLLDEYEVEVKPNKTLVLNIPDDNLYVVVEPIPSAG [r5_797_TrMRF] | 0.975 ± 0.057
SAGGGQPVKITEIENIDPNNGKITFEIVDPDDGRPLKIKIPVQRRPNGKPYLQIEIEVDGKKWEIMFMSAGG [r13_993_TrROS] | 1.87 ± 0.15
SAGGSAGGSAGMYRVEIEIEMSKEQLEALKKNKNLKPGQKIDLKVKIKIEPVKLDKNGKLSAGGSAGGSAGG [r17_194_TrROS_Hall] | 2.32 ± 0.13
SAEVRARLEYDPVSGDLVLEVERPLPNGDVIRARVDLVNPVLRVEHLPVRDGVPLPRETELDLPADALVSAG [r14_64_TrMRF] | 0.766 ± 0.067
SAGGSAGGMLEITVPSRREPDSLEVEITITDPSSNTTTTLRRRFPPGDETSPEEIAEKIAAELSSAGGSAGG [r6_234_JUSTAS] | 0.505 ± 0.28
SAGGSAGGSAKPKVKIKIEVTVNEDGTVTVRAEIEVNGKKYTIEVKIKIKAPKPEKVKLFKKSAGGSAGGSA [r18_507_TrROS_Hall] | 0.497 ± 0.48
SAGGSAMLIRFVRDDKTVELRPFSSIEEARAFLEKGPVEEIEPREAPGGERVTFRAKLPDGEVLVESAGGSA [r15_632_JUSTAS] | -0.542 ± 0.15
SAMPVLVVIKRTVVLPRPGEELAKYEDPDGKVRRRVVVETLVVEVNPEDLPELVEFFKSLGIDEISVFGSAG [r14_509_TrMRF] | 2.13 ± 0.11
SAGLRLVLELELEVPPDVPPERVREAVEREVRDILGRLGIPLPPDARIVVEEVERRGRRVRFRVEVDFPSAG [r14_735_TrMRF] | 5.01 ± 0.21
SAGGSAGGSSSMTLTTDDGSTLDSVTRDPNSDTATVTYSGSGETVTATATTLPDGSVVVTVVTSAGGSAGGS [r12_839_JUSTAS] | 1.08 ± 0.11
SAGGSMPPETEVTVTVEEFEEDPSRRLRVTITTPDGTVVTTDLENPGELSPEEEARIAALAAALAASAGGSA [r2_17_JUSTAS] | 1.58 ± 0.055
SAGGSAETKTVVIEVKLPEELKGLSAEELAALLAEELAKKPGVKEVTVTVERDEETDTLRVTITYPSAGGSA [r15_1029_TrROS_Hall] | 3.12 ± 0.042
SAGGSAGGSAGGKPKPIKIEVYYDEKTGKLLVKVTLPNGKPVTLEFDDIGDIDEVKKAAGSAGGSAGGSAGG [r7_41_TrMRF] | 2.44 ± 0.18
SAGGSAGGSMPVVRIKVRYFNKDGKPVKEKEITITLPAEEITADELRKRLEEAGYEIVEIEVVSAGGSAGGS [r12_611_TrROS_Hall] | 3.58 ± 0.061

Sequence | folding stability dG unfold [kcal/mol]
SAGGSAGGSAGGSTLQSNASGIFTLYLAGSNLTVTLSKAELPKIPADFPIPSSATFTAGSAGGSAGGSAGGS [r4_91_JUSTAS] | -0.196 ± 0.41
SAGGSAGGSAGGSMVSVEEFEVELPGGSKVKATVLIDPEGPLTVLLGDETFILPKEELGSAGGSAGGSAGGS [r10_649_JUSTAS] | -0.118 ± 0.13
SAGGSAGGSAGGWRTVWIRMPPGQSPEQAVDEIKDHFPPGEPIEVEYHPNDGFFRVKIPSAGGSAGGSAGGS [r10_163_TrROS] | 0.668 ± 0.077
SAGGSAGGSAGGSSLYVPGKGYIVERDEAKGYLVIKPIEPDGIVPDAEVFYKPPSVPLISAGGSAGGSAGGS [r4_409_JUSTAS] | -0.271 ± 0.19
SASMIQKYFKSQGYKIEKIEEKTLPNGERVVSYKITSTVNVPPNEKGVSKPVKKTTELTLSTEEAIKLGSAG [r14_16_JUSTAS] | 1.04 ± 0.15
SAGGFKLKIDDIEFHDDYLVIRLKIEVPVNDQTMKFELTLIIPVPPPPPPKPPVDPEEYRDPDGKWHSAGGS [r8_234_TrROS] | 2.63 ± 0.24
SAGGMTLRITTADGRVIEIEADSLEDALAALRTLLGLKPGDVLTVEVVVEVDGEKKTFTLTIVLPPEPSAGG [r13_145_TrROS_Hall] | > 6
SAGGMLVRVRFRIVEPGTGEPFEFEALLFFGEDGSFELVFPDGTRLLFPPEARIEVLDAELLDPDEASAGGS [r16_223_TrMRF] | 4.61 ± 0.2
KKKKPPKVVKVEIKFDKKTKKITVKVDGKTFTITLPDGKKIEITVPAGMSEEEIKALAKKLAKELEEKLKKS [r1_25_TrROS_Hall] | 2.18 ± 0.55
SAGMPPVKVEIEVYPVRVEGELLYIAKIVRPDGSVLVIAFKPEELIEAIKKEFPDIEEIKFSPFETPPESAG [r5_25_TrMRF] | 3.48 ± 0.054
SAGGSAGGGMPMNIKVEEITSETIPPDVTVSETKVIDPSGKELKYLTVTTVRTDGKTSVLTVEGSAGGSAGG [r6_830_JUSTAS] | -0.0271 ± 0.31
SAGGGAIVRARFPRDIPELVRAYKILEAAAPDEEVTLLLPEKPVVVVRREKVGDYFLLEVRLPEDLLSAGGS [r16_404_TrMRF] | 0.609 ± 0.12
SAGGSAFKIKIPEDLRGAPPGGKIEIEFPNGVRAEIEYKDGEWVIEVKHYGPNGKPVEEHEFRIKVSAGGSA [r15_558_TrROS] | 1.28 ± 0.22
SAGGSAGGSAVVTLSPDGRRITITSRTVTYFKVTNTDDIAIETSVETVVTPLPSLGSPEVLASAGGSAGGSA [r18_6_JUSTAS] | 2.56 ± 0.28
SAGGKEVKITIEYDEETKEVRVTIEKDGKEITVTMTAEELKKLLEELEKLPPVVVKDKDGKEKVVLLSAGGS [r8_332_TrROS_Hall] | 0.696 ± 0.13
SAGGKKIEIYKLKDALIIKIPEKGLLILLGNDTAIIFKVKSIKNNGKPKIISSKIISLEEILDLIKSSAGGS [r8_174_TrMRF] | 3.31 ± 0.13
SAGGSAGGSSMYTYPELGVKVTTTPLPTDSTLVTATFPDGSVYKFTVDPSGNLVTSTPIVVNSSAGGSAGGS [r12_56_JUSTAS] | 0.784 ± 0.06
SAGGSAGGSAGGETVTIVDKKTNKTITYNKETNEFTITTKNGKKKTIKVDSPEEALKALSAGGSAGGSAGGS [r10_849_TrROS_Hall] | 0.89 ± 0.12
SAGGWTIEEIIDAIREAKENGPGQKVEIEIPFGGGPVRVSIEVPPDGRVKIEIQYDNKPIWEIEIPVSAGGS [r16_611_TrROS] | 2.02 ± 0.15
SARIAEILRELGMEVSVENHPDGMNEITFKFPNGYKIQVHMSPNGIDVQIQPPEGERRTFSIDEIKDLLSAG [r14_578_TrROS] | 2.77 ± 0.081
SAGGSAGGSAGGKVIVKEITINEDGTVTIKGEIFDENGELIAEAEFKFRLGDGGPIEFESAGGSAGGSAGGS [r10_484_TrMRF] | 2.3 ± 0.16
